Reference: patent publication US6028055A, “Receptor selective BNP” (Genetech, Inc., priority 1997, dated 2000)
Where no end group is shown, it is not given here.

Legend:
[1] = molecular target: T1, NPR-C (Homo sapiens, UniProt P17342); experiment: Measurement of binding affinities for NPR-C, membranes from stable 293 cell lines, 125I rat ANP displacement; set-up: unit not given here; conditions: pure synthetic peptide vs 30 pM 125I rat ANP, 2 hours room temperature; duplicate points, three separate assays
T1 construct: expressed in transfected cells
T1 sequence (P17342 27-541): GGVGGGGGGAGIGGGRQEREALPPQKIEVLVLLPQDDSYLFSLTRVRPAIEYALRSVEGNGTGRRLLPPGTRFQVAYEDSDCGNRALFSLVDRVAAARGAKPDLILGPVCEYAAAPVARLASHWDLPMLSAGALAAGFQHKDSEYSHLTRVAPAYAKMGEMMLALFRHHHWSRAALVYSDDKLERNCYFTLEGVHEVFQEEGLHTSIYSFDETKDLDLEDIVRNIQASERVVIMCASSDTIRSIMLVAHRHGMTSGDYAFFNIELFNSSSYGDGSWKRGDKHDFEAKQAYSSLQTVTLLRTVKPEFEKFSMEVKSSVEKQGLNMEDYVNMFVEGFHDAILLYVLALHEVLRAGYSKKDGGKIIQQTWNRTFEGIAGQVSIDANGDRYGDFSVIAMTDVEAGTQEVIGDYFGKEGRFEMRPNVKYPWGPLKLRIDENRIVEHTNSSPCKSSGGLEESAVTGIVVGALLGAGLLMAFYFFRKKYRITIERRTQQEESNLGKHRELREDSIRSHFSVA
Procedure: Membrane Preparation Membranes from stable 293 cell lines expressing NPR-A (Lowe and Fendly (1992) J. Biol. Chem.) or NPR-C (Cunningham et al. (1994) supra) were prepared by removing the cells from tissue culture plates with 0.5MM EDTA in PBS, centrifuging at 225×g, 4° C., and resuspending in 50 mM Hepes Ph7.4, 1 mM EDTA, 1 mM DTT, 250 mM Sucrose, 0.7 μg/ml Pepstatin A, 0.5 μg/ml Leupeptin, 1 mM PMSF, 1 μM Phosphoramidon. The resuspended cells were homogenized for 30 seconds with a Brinkman polytron on setting 5. The homogenate was centrifuged in 30 ml corex tubes in Sorval HB-4 rotor at 400×(1500 rpm) for 10 minutes at 4° C. The supernatant was centrifuged again in screw cap polycarbonate tubes (Beckman 355618) at 100,000×g (31,500 rpm) for 30 minutes, 4° C. in a Beckman TI60 rotor. The pellet was resuspended in 50 mM Hepes, 0.1 mM EDTA, 5.0 mM MgCl2, 100 mM NaCl, 0.7μg/ml Pepstatin A, 0.5 μg/ml Leupeptin, 1 mM PMSF, 1 μM Phosphoramidon and homogenized again with 15 strokes in a Dounce homogenizer (Wheaton 7 ml, #357542). The membranes were passed through a 22 gauge needle several times before aliquoting into eppendorf tubes for storage at -80° C.
The binding was allowed to go for 2 hours at room temperature in 96 well U-bottomed microtiter polypropylene plates (Sigma M-4029) with gentle agitation. The bound hormone was separated from the free using a Packard Filtermate 196 cell harvester and 1% polyethyleneimine-saturated Packard unifilter-96 GF/B plates by vacuum filtration. The plates were dried under vacuum chamber for 10 minutes prior to adding 40 μl Microscint-20 scintillant and counting in a Packard Topcount scintillation counter. Each affinity represents points measured in duplicate within three separate assays.

[2] = molecular target: NPR-A IgG fusion (A-IgG) (Homo sapiens, UniProt P16066); experiment: Phage ELISA measurement of phagemid affinities for NPR-A (A-IgG); conditions: ratio of mutant BNP phagemid binding affinity (EC50) to ANP phagemid binding to A-IgG; clones after 7 rounds of selection
NPR-A IgG fusion (A-IgG), sequence (P16066 with tags, fused parts or gaps limits assumed): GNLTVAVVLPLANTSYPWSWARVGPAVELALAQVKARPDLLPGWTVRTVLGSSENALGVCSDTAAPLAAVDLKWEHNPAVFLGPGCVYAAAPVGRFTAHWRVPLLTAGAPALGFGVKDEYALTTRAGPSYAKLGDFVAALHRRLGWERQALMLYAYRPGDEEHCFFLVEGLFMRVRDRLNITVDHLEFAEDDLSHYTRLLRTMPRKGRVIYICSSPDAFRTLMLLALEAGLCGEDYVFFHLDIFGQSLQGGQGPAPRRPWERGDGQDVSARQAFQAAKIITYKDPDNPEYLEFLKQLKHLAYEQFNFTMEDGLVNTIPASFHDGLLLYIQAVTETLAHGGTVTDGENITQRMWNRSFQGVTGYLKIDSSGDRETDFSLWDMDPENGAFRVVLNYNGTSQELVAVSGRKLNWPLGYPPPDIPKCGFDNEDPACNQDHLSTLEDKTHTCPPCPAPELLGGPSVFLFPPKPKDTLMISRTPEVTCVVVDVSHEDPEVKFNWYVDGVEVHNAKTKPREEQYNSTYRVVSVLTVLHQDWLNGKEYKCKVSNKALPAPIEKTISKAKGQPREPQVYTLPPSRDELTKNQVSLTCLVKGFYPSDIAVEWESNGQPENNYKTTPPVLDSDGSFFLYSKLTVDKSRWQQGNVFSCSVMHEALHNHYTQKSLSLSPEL
Procedure: ELISA measurement of phagemic affinities for NPR-A and NPR-C: Phage ELISA were determined according to the method of Cunningham, B. C. et al., (1994) EMBO J., 13:2508-2515. Microtiter plates (Nunc, Maxisorb, 96 wells) were coated with purified A-IgG (at 1 μg/ml) in 50 mM sodium bicarbonate (pH 9.6) at 4 C overnight. The plates were blocked with 5% skimmed milk and washed with PBS, 0.01% TWEEN 20. Serial dilutions of competing receptor (A-IgG or C-IgG) and a subsaturating concentration of BNP-phagemid were added to wells in 100 μl of binding buffer (2% skim milk in PBS). After 2 h the plates were washed, and the bound phagemid stained with sheep anti-M13 HRP conjugate antibody (Pharmacia #279402-01),and assayed.
The amino acid residues found at each randomized position after 7 rounds of selection are shown in Table I. 8 segments of 3 to 5 amino acids randomized by primer mutagenisis are indicated at the top of the figure, immediately above the numbering for 32 amino acid human BNP, the sequence of which is shown in single letter amino acid code. Cysteine residues 10 and 26 were not mutagenized since they form a disulfide bond essential for binding to NPR-A. The substitution of K3 for D (Display BNP) is analogous to the acidic substitution R3D in ANP used to facilitate secretion expression in E. coli (Cunningham et al. (1994)). Individual clones were picked and the DNA sequence was determined. The number of times a particular sequence was observed is shown on the left. The ratio of mutant BNP phagemid binding affinity to ANP phagemid binding to A-IgG is shown on the right. Mutations that occur outside of the mutagenesis window result from polymerase misincorporation mutations that render a selection advantage to the mutant BNP phagemid (Cunningham et al. (1994)).

[3] = molecular target: T2, NPR-C expressed in stable 293 cell lines (membranes) (human) (UniProt P17342); experiment: competition with 30 pM 125I-rat ANP on membranes of 293 cells expressing NPR-C; unit not given
T2 sequence: T1 sequence (P17342 27-541)

[4] = molecular target: human natriuretic peptide receptor-A expressed in 293 cells (human) (UniProt P16066); experiment: competition with 30 pM 125I-rat ANP on membranes of 293 cells expressing NPR-A; unit not given

Substance | Binding to NPR-A ratio of mutant/hANP [2] | other results
hBNP Arg13Gly, Lys14Arg, Ser19Arg (SPKMVQGSGCFGGRMDRIRSSSGLGCKVLRRH) |  | NPR-C binding affinity (Assay #1) [1]: 28,370 ± 9,654
hBNP Lys14Asn, Ser19Arg, Ser20Lys, Ser21Thr (SPKMVQGSGCFGRNMERIRKTSGLGCKVLRRH; ends and bridges not checked; cysteine pairing not given here) [N N K T, measured as BNP-phagemid clone (Display BNP, K3D)] | 4.2 | 
hBNP Lys14Asn, Ser19Arg (SPKMVQGSGCFGRNMERIRSSSGLGCKVLRRH; ends and bridges not checked; cysteine pairing not given here) [N R, measured as BNP-phagemid clone (Display BNP, K3D)] | 3.5 | 
hBNP Gly23Met, Leu24Phe, Gly25Arg (SPKMVQGSGCFGRKMERISSSSMFRCKVLRRH; ends and bridges not checked; cysteine pairing not given here) [M F R, measured as BNP-phagemid clone (Display BNP, K3D)] | 3.0 | 
G R R: BNP-phagemid clone of Table I (Display BNP, K3D); substitutions seem those of hBNP Arg13Gly, Lys14Arg, Ser19Arg | 1.6 | 
hANP Gly16Arg [reference compound] |  | NPR-C binding affinity (Assay #1) [1]: 10,601 ± 1271
hBNP Lys14Asn, Ser19Arg, Ser20Gly (SPKMVQGSGCFGRNMERIRGSSGLGCKVLRRH; ends and bridges not checked; cysteine pairing not given here) [N R G, measured as BNP-phagemid clone (Display BNP, K3D)] | 3.9 | 
hBNP Gly23Met, Leu24Trp, Gly25Arg [M W R] | 1.0 | 
hBNP Gly23Met, Leu24Tyr, Gly25Arg (SPKMVQGSGCFGRKMERISSSSMYRCKVLRRH; ends and bridges not checked; cysteine pairing not given here) [M Y R, measured as BNP-phagemid clone (Display BNP, K3D)] | 2.4 | 
hBNP Lys14Thr, Ser19Arg, Ser20His, Ser21Gly, Ser22Gly (SPKMVQGSGCFGRTMERIRHGGGLGCKVLRRH; displayed on phagemid) [T R H G H, measured as BNP-phagemid clone (Display BNP, K3D)] | 5.0 | 
hBNP (SEQ ID NO: 1) (peptide) |  | affinity (NPR-C) [3]: 1790; affinity (NPR-A) [4]: 645
hBNP Lys14Asn, Ser19Arg, Ser21Trp [N R S W] | 4.4 | 
hBNP Lys14Asn, Ser19Gly, Ser20Arg, Ser21Ala (SPKMVQGSGCFGRNMERIGRASGLGCKVLRRH; ends and bridges not checked; cysteine pairing not given here) [N G R A, measured as BNP-phagemid clone (Display BNP, K3D)] | 4.8 | 
hBNP Lys14Asn, Ser19Ala, Ser20Arg, Ser21Glu (SPKMVQGSGCFGRNMERIARESGLGCKVLRRH; ends and bridges not checked; cysteine pairing not given here) [N A R E, measured as BNP-phagemid clone (Display BNP, K3D)] | 1.3 | 
hBNP Lys14Asn, Ser19Gly, Ser20His, Ser21Leu (SPKMVQGSGCFGRNMERIGHLSGLGCKVLRRH; displayed on phagemid) [N G H L, measured as BNP-phagemid clone (Display BNP, K3D)] | 14.8 | 
F W R: BNP-phagemid clone of Table I (Display BNP, K3D); substitutions as in hBNP Gly23Phe, Leu24Trp, Gly25Arg (SEQ ID NO:2) (SPKMVQGSGCFGRKMERISSSSFWRCKVLRRH; ends and bridges not checked; cysteine pairing not given here) | 0.8 | 
hBNP Gly23Leu, Leu24Trp, Gly25Arg (SPKMVQGSGCFGRKMERISSSSLWRCKVLRRH; ends and bridges not checked; cysteine pairing not given here) [L W R, measured as BNP-phagemid clone (Display BNP, K3D)] | 2.0 | 
hBNP Lys14Asn, Ser19Gly, Ser20Gly, Ser21Leu (SPKMVQGSGCFGRNMERIGGLSGLGCKVLRRH; ends and bridges not checked; cysteine pairing not given here) [N G G L, measured as BNP-phagemid clone (Display BNP, K3D)] | 3.9 | 
hBNP Lys14Asn, Ser19Arg, Ser20His, Ser21Leu (SPKMVQGSGCFGRNMERIRHLSGLGCKVLRRH; ends and bridges not checked; cysteine pairing not given here) [N R H L, measured as BNP-phagemid clone (Display BNP, K3D)] | 1.0 | 
hBNP Lys14Asn, Ser19Arg, Ser20Thr, Ser21Lys (SPKMVQGSGCFGRNMERIRTKSGLGCKVLRRH; ends and bridges not checked; cysteine pairing not given here) [N R T K, measured as BNP-phagemid clone (Display BNP, K3D)] | 4.4 | 
hBNP Lys14Asn, Ser19Arg, Ser20Asn, Ser21Thr (SPKMVQGSGCFGRNMERIRNTSGLGCKVLRRH; ends and bridges not checked; cysteine pairing not given here) [N R N T, measured as BNP-phagemid clone (Display BNP, K3D)] | 8.7 | 
hBNP Lys14Gln, Ser19Arg, Ser20His, Ser22Thr (SPKMVQGSGCFGRQMERIRHSTGLGCKVLRRH; displayed on phagemid) [Q R H S T, measured as BNP-phagemid clone (Display BNP, K3D)] | 4.0 | 
hBNP Lys14Asn, Ser19Arg, Ser20Gly, Ser21Met (SPKMVQGSGCFGRNMERIRGMSGLGCKVLRRH; ends and bridges not checked; cysteine pairing not given here) [N R G M, measured as BNP-phagemid clone (Display BNP, K3D)] | 2.9 | 
